Experimental data as given in article PMC11157272, “Fructose-1-kinase has pleiotropic roles in Escherichia coli” (The Journal of Biological Chemistry, 2023).

Assays:
[1] = target: T1, catabolite repressor activator protein (WT Cra), untagged (E. coli), P0ACP1; experiment: atomic force microscopy; Cra, FruK and 331 bp fruBKA promoter DNA mixed (20 nM Cra/20 nM FruK and 20 nM Cra/10 nM FruK), 50 mM Hepes, 100 mM KCl, 0.1 mM EDTA, 10 mM MgCl2, 0.3 mM DTT, pH 7.0, 60 min at room temperature, deposited on functionalised mica; DNA-bound and DNA-free particles; volumes converted to molecular weights and clustered
T1 chain: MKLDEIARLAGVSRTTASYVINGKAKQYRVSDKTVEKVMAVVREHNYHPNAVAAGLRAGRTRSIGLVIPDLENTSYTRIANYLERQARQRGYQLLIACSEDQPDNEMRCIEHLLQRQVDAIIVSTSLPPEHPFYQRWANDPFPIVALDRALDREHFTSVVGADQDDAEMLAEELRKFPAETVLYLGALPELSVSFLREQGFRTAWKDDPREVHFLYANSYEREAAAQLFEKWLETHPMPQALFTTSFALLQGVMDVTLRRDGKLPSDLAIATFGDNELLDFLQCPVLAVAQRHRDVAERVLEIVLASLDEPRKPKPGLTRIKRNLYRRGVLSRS

[2] = target: fructose-1-kinase (FruK), untagged, expressed from pET-3a and purified (E. coli), P0AEW9; experiment: atomic force microscopy; single-protein samples (FruK+DNA, Cra+DNA) in 50 mM Hepes, 100 mM KCl, 0.1 mM EDTA, 10 mM MgCl2, 0.3 mM DTT, pH 7.0, 60 min at room temperature, deposited on functionalised mica; molecular volumes converted to molecular weights
[3] = target: T1, catabolite repressor activator protein …; experiment: BLI; equilibrium BLI (Octet RED96): biotinylated operator DNA on streptavidin tips, dipped into pre-equilibrated 2.5 nM Cra dimer plus varied FruK; 50 mM Hepes, 0.1 M KCl, 0.1 mM EDTA, 10 mM MgCl2, pH 7.0, 0.3 mM DTT, 0.1 mg/mL BSA; room temperature; global fit to Equation 2 with n assumed 1
[4] = target: T2, His-tagged Cra (pET3a-Cra-C-His) for biolayer interferometry (E. coli), P0ACP1; experiment: as above
T2 chain: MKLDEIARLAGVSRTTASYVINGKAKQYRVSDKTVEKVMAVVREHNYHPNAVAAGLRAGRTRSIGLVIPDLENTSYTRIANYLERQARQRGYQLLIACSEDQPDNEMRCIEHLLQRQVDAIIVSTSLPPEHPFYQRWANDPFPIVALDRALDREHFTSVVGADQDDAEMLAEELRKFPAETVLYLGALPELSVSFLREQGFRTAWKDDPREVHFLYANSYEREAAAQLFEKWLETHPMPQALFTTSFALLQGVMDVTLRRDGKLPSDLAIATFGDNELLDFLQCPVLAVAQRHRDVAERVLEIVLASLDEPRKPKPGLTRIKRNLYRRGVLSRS

[5] = target: Cra (FruR), WT (Escherichia coli (gene from strain …, UniProt P0ACP1 1-334)); experiment: BLI; 100 nM Cra; BLI: 50 mM Hepes, 100 mM KCl, 0.1 mM EDTA, 10 mM MgCl2, 0.3 mM DTT, 0.1 mg/mL BSA, pH 7.0, about room temperature; concentrations as dimer; details: protein: recombinant; tags: none; chain copies: 2; label: biotin
[6] = target: the molecule itself; experiment: atomic force microscopy; single-protein samples (FruK+DNA, Cra+DNA) in 50 mM Hepes, 100 mM KCl, 0.1 mM EDTA, 10 mM MgCl2, 0.3 mM DTT, pH 7.0, 60 min at room temperature, deposited on functionalised mica; molecular volumes converted to molecular weights

B1: fructose-1-kinase (FruK), untagged, expressed from pET-3a and purified, P0AEW9 1-312 (enzyme)
chain: MSRRVATITLNPAYDLVGFCPEIERGEVNLVKTTGLHAAGKGINVAKVLKDLGIDVTVGGFLGKDNQDGFQQLFSELGIANRFQVVQGRTRINVKLTEKDGEVTDFNFSGFEVTPADWERFVTDSLSWLGQFDMVCVSGSLPSGVSPEAFTDWMTRLRSQCPCIIFDSSREALVAGLKAAPWLVKPNRRELEIWAGRKLPEMKDVIEAAHALREQGIAHVVISLGAEGALWVNASGEWIAKPPSVDVVSTVGAGDSMVGGLIYGLLMRESSEHTLRLATAVAALAVSQSNVGITDRPQLAAMMARVDLQPFN
modifications: not checked
For B1, the stoichiometry N (FruK homodimer per Cra homodimer) [1] was 1, the stoichiometry N [2] was 2 and the Kd [3] was 2 nM. It also gave a Kd [4] of 1.6 nM.

B2: His-tagged FruK (pET3a) for biolayer interferometry, P0AEW9 1-312 (enzyme)
chain: MSRRVATITLNPAYDLVGFCPEIERGEVNLVKTTGLHAAGKGINVAKVLKDLGIDVTVGGFLGKDNQDGFQQLFSELGIANRFQVVQGRTRINVKLTEKDGEVTDFNFSGFEVTPADWERFVTDSLSWLGQFDMVCVSGSLPSGVSPEAFTDWMTRLRSQCPCIIFDSSREALVAGLKAAPWLVKPNRRELEIWAGRKLPEMKDVIEAAHALREQGIAHVVISLGAEGALWVNASGEWIAKPPSVDVVSTVGAGDSMVGGLIYGLLMRESSEHTLRLATAVAALAVSQSNVGITDRPQLAAMMARVDLQPFN
modifications: not checked
B2 gave a Kd [3] of 2.1 nM.

B3: fruBproximal (dsDNA)
DNA 1: ATGCATGTTGTGTGGTTCTTGAAACGTTTCAGCTCACACAGGTCC
DNA 2: GGACCTGTGTGAGCTGAAACGTTTCAAGAACCACACAACATGCAT
modifications: 5' biotin
B3: binds [5].

B4: catabolite repressor activator protein (WT Cra), untagged (natural protein, E. coli, UniProt P0ACP1 1-334, looked up)
chain: MKLDEIARLAGVSRTTASYVINGKAKQYRVSDKTVEKVMAVVREHNYHPNAVAAGLRAGRTRSIGLVIPDLENTSYTRIANYLERQARQRGYQLLIACSEDQPDNEMRCIEHLLQRQVDAIIVSTSLPPEHPFYQRWANDPFPIVALDRALDREHFTSVVGADQDDAEMLAEELRKFPAETVLYLGALPELSVSFLREQGFRTAWKDDPREVHFLYANSYEREAAAQLFEKWLETHPMPQALFTTSFALLQGVMDVTLRRDGKLPSDLAIATFGDNELLDFLQCPVLAVAQRHRDVAERVLEIVLASLDEPRKPKPGLTRIKRNLYRRGVLSRS
notes: also called FruR; source: E. coli 3.300, constitutively over-expressed from pHG165a, in lysate; E. coli BLIM, constitutively expressed, purified (ammonium sulfate precipitation, phosphocellulose)
B4 was tested, and the “stoichiometry N” value [6] was 2.
